Tests used:
33-mer gliadin peptide = assay: In vivo endopeptidase activity: co-perfusion of 33-mer and PEP in rat jejunum
Procedure: FIG. 7. Breakdown and detoxification of 33-mer gliadin peptide with PEP.
FIG. 14. (SEQ ID NO:12) Proteolysis of […] (5 μM) co-perfused with individual PEP's (0.1 μM) in the small intestinal lumen of an anesthetized rat. Each enzyme-substrate mixture was introduced via a catheter into a 15-20 cm segment of the upper jejunum. Samples were collected at the other end of the segment, and analyzed by UV-HPLC (215 nm). The control without any PEP is shown in the top trace.
In accordance with the methods of the invention, a prolyl endopeptidase can catalyze breakdown of this peptide, thereby diminishing its toxic effects. […] The ability of this PEP to clear the 33-mer gliadin peptide was evaluated via in vitro and in vivo experiments.
In Vivo Endopeptidase Activity. An adult (female or male) rat was anesthetized and maintained at 36-37° C. during the entire surgical procedure. The peritoneal cavity was opened, and a small incision was made at the beginning and the end of a 15-20 cm jejunum segment. Polyethylene catheters were inserted and secured into the two ends. The input catheter was connected with a pump-driven syringe filled with a solution. […] The collected digestive products were analyzed by HPLC on a C18 column.
In Vivo Hydrolysis. […] In this live animal model, the impact of concerted action of the perfused (luminal) PEP and the brush border (surface) peptidases is assessed.

[1] = Enzyme activity vs. pH (kcat titration); assay type: biochemical; details: for active site pKa: 100-4000 μM succinyl-Ala-Pro-pNA
Procedure: FIG. 8. Effect of pH on the turnover numbers (kcat) of FM PEP, MX PEP and SC PEP.
Activity Assays. Post-proline cleavage activity was measured using Z-Gly-Pro-p-nitroanilide and Succinyl-Ala-Pro-p-nitroanilide (Bachem, CA). Z-Gly-Pro-pNA was dissolved in a PBS:water:dioxane (8:1.2:0.8) assay mixture. The concentration of Z-Gly-Pro-pNA was varied from 100-600 μM. Although the substrate Z-Gly-Pro-pNA was effective in detecting enzyme activity, its insolubility at higher concentrations precluded kinetic measurements under substrate-saturated conditions. In contrast, Succinyl-Ala-Pro-pNA, had the advantage of high water solubility at all pH values tested, and was therefore a preferred substrate for kinetic studies. […] Reaction mixtures ([…] consisted of 30 μl of 10× pH buffer, final concentration of 0.01 μM enzyme, and Suc-Ala-Pro-pNA to final concentrations between 100 μM to 4 mM.
Enzyme Activity vs. pH. The luminal environment of the duodenum is approximately at pH 6. Therefore, a therapeutically useful PEP must retain high specific activity at that pH. The steady state turnover rate, kcat, of each PEP was titrated in various pH conditions using 100-4000 μM succinyl-Ala-Pro-pNA, shown in FIG. 8. […] Such conformational changes have been implicated in the catalytic cycle of the structurally characterized porcine brain PEP.

[2] = test system: trypsin, chymotrypsin, elastase and carboxypeptidase A; assay: Pancreatic protease stability; assay type: in vitro ADME; details: pH 6.5
Procedure: (§1) FIG. 9. Resistance of the FM PEP and the MX PEP to inactivation by gastric and pancreatic enzymes. Pancreatic enzyme stability was evaluated by treating 5 U/ml of the FM PEP and the MX PEP with 1 mg/ml trypsin, 1 mg/ml chymotrypsin, 0.2 mg/ml elastase and 0.2 mg/ml carboxypeptidase A (40 mM phosphate, pH=6.5). Pepsin stability was tested by treating the FM PEP and the MX PEP (5 U/ml) with 1 mg/ml pepsin (pH=2, 20 mM HCl).
(§2) Gastric and Pancreatic Protease Stability. […] Absorption was measured at 410 nm for 1 to 2 min every 10 s to assay residual activity. […] Enzyme activities are expressed as a percentage of the maximum activity, typically observed at the zero time point.
(§3) PEP Stability. […] We therefore evaluated the extent to which the activity of each PEP remains intact after 10 min of incubation at selected pH values between 1.6 and 3.9. […] Since therapeutic efficacy would require a PEP to act upon gluten in conjunction with pancreatic proteases that are secreted into the duodenum, the resistance of FM PEP and MX PEP toward both gastric and pancreatic enzymes was evaluated. For this we pre-incubated the enzymes with physiological quantities of either pepsin (at pH 2) or a cocktail comprising of trypsin, chymotrypsin, elastase and carboxypeptidase A (at pH 6.5).

pepsin = assay: Gastric protease stability; assay type: in vitro ADME; details: 1 mg/ml pepsin, pH 2
Procedure: as §1, §2, §3

B1: PEP: prolyl endopeptidase; Examples 1-2: from Flavobacterium meningosepticum (US Biological); Example 11: source not stated (protein, UniProt P27028 21-705, looked up)
Prolyl endopeptidase: QNSNVLKYPETKKVSHTDTYFGTQVSDPYRWLEDDRAEDTKAWVQQEVKFTQDYLAQIPFRDQLKKQLMDIWNYEKISAPFKKGKYTYFSKNDGLQAQSVLYRKDAAGKTEVFLDPNKFSEKGTTSLASVSFNKKGTLVAYSISEGGSDWNKIIILDAETKKQLDETLLDVKFSGISWLGDEGFFYSSYDKPKEGSVLSGMTDKHKVYFHKLGTKQSQDELIIGGDKFPRRYIGAYVTDDQRYLVVSAANATNGNELYIKDLKNKTDFIPIITGFDSNVNVADTDGDTLYLFTDKDAPNKRLVKTTIQNPKAETWKDVIAETSEPLEINTGGGYFFATYMKDAIDQVKQYDKNGKLVRAIKLPGSGNASGFGGEKTEKDLYYSFTNYITPPTIFKYNVTTGNSEVYQKPKVKFNPENYVSEQVFYTSSDGTKIPMMISYKKGLKKDGKNPTILYSYGGFNISLQPAFSVVNAIWMENGGIYAVPNIRGGGEYGKKWHDAGTKMQKKNVFNDFIAAGEYLQKNGYTSKEYMALSGRSNGGLLVGATMTMRPDLAKVAFPGVGVLDMLRYNKFTAGAGWAYDYGTAEDSKEMFEYLKSYSPVHNVKAGTCYPSTMVITSDHDDRVVPAHSFKFGSELQAKQSCKNPILIRIETNAGHGAGRSTEQVVAENADLLSFALYEMGIKSLK
detoxification (clearance) of the 33-mer gliadin peptide (33-mer gliadin peptide; rat BBM and co-perfusion in intact rat intestines): this detoxification was demonstrated

B2: FM PEP: recombinant prolyl endopeptidase from Flavobacterium meningosepticum (Genbank D10980) (protein)
chain: QNSNVLKYPETKKVSHTDTYFGTQVSDPYRWLEDDRAEDTKAWVQQEVKFTQDYLAQIPFRDQLKKQLMDIWNYEKISAPFKKGKYTYFSKNDGLQAQSVLYRKDAAGKTEVFLDPNKFSEKGTTSLASVSFNKKGTLVAYSISEGGSDWNKIIILDAETKKQLDETLLDVKFSGISWLGDEGFFYSSYDKPKEGSVLSGMTDKHKVYFHKLGTKQSQDELIIGGDKFPRRYIGAYVTDDQRYLVVSAANATNGNELYIKDLKNKTDFIPIITGFDSNVNVADTDGDTLYLFTDKDAPNKRLVKTTIQNPKAETWKDVIAETSEPLEINTGGGYFFATYMKDAIDQVKQYDKNGKLVRAIKLPGSGNASGFGGEKTEKDLYYSFTNYITPPTIFKYNVTTGNSEVYQKPKVKFNPENYVSEQVFYTSSDGTKIPMMISYKKGLKKDGKNPTILYSYGGFNISLQPAFSVVNAIWMENGGIYAVPNIRGGGEYGKKWHDAGTKMQKKNVFNDFIAAGEYLQKNGYTSKEYMALSGRSNGGLLVGATMTMRPDLAKVAFPGVGVLDMLRYNKFTAGAGWAYDYGTAEDSKEMFEYLKSYSPVHNVKAGTCYPSTMVITSDHDDRVVPAHSFKFGSELQAKQSCKNPILIRIETNAGHGAGRSTEQVVAENADLLSFALYEMGIKSLK
active site pKa [1]: ~6
pH optimum ([1]; as stated in the description, no method given): ~7
resistance to pancreatic enzymes [2]: remarkably stable to destruction
resistance to pepsin (pepsin): highly susceptible to pepsin catalyzed proteolysis
breakdown of the 33-mer co-perfused in rat jejunum (33-mer gliadin peptide; 5 μM 33-mer, 0.1 μM PEP, 15-20 cm segment): promoted more complete breakdown of the 33-mer than both the MX and the SC PEP

B3: MX PEP: novel recombinant prolyl endopeptidase from Myxococcus xanthus (Genbank AF127082, SEQ ID NO:47) (protein, listed as Myxococcus xanthus)
chain: MSYPATRAEQVVDTLHGVQVADPYRWLEDEKAPEVQTWMTAQNAHAREALAKFPGREALAARFKELFYTDSVSTPSRRNGRFFYVRTHKDKEKAILYWRQGESGQEKVLLDPNGWSKDGTVSLGTWAVSWDGKKVAFAQKPNAADEAVLHVIDVDSGEWSKVDVIEGGKYATPKWTPDSKGFYYEWLPTDPSIKVDERPGYTTIRYHTLGTEPSKDTVVHERTGDPTTFLQSDLSRDGKYLFVYILRGWSENDVYWKRPGEKDFRLLVKGVGAKYEVHAWKDRFYVLTDEGAPRQRVFEVDPAKPARASWKEIVPEDSSASLLSVSIVGGHLSLEYLKDATSEVRVATLKGKPVRTVQLPGVGAASNLMGLEDLDDAYYVFTSFTTPRQIYKTSVSTGKSELWAKVDVPMNPEQYQVEQVFYASKDGTKVPMFVVHRKDLKRDGNAPTLLYGYGGFNVNMEANFRSSILPWLDAGGVYAVANLRGGGEYGKAWHDAGRLDKKQNVFDDFHAAAEYLVQQKYTQPKRLAIYGGSNGGLLVGAAMTQRPELYGAVVCAVPLLDMVRYHLFGSGRTWIPEYGTAEKPEDFKTLHAYSPYHHVRPDVRYPALLMMAADHDDRVDPMHARKFVAAVQNSPGNPATALLRIEANAGHGGADQVAKAIESSVDLYSFLFQVLDVQGAQGGVAAQGR
active site pKa [1]: ~6
resistance to pancreatic enzymes [2]: remarkably stable to destruction
resistance to pepsin (pepsin): highly susceptible to pepsin catalyzed proteolysis

Source: patent US8796201B2 (The Board of Trustees of the Leland Stanford Junior …, priority 2002, dated 2014)
